Measured values: patent publication US20200347130A1 (JIANGSU HENGRUI MEDICINE, published 2020)

T1: CD96 extracellular region with His tag (CD96-His) (human, UniProt P40200 22-519)
T1 construct: also called CD96-ECD-His; Bio-CD96-His (biotin-labelled form)
T1 sequence: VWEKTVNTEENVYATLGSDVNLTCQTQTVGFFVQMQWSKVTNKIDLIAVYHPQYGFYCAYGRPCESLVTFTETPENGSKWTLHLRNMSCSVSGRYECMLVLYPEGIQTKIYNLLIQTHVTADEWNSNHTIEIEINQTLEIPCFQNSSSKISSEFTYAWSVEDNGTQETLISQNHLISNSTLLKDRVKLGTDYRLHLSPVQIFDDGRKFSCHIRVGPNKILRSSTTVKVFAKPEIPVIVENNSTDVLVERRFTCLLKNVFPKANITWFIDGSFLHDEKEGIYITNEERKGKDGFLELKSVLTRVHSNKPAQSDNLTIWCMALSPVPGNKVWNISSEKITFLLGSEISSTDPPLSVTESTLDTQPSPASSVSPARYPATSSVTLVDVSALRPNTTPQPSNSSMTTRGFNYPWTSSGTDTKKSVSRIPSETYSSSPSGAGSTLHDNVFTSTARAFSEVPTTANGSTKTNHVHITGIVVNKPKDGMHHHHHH

T2: Biotinylated CD96 antigen (human, UniProt P40200-2 22-503, limits assumed, biotinylated)
T2 sequence (looked up): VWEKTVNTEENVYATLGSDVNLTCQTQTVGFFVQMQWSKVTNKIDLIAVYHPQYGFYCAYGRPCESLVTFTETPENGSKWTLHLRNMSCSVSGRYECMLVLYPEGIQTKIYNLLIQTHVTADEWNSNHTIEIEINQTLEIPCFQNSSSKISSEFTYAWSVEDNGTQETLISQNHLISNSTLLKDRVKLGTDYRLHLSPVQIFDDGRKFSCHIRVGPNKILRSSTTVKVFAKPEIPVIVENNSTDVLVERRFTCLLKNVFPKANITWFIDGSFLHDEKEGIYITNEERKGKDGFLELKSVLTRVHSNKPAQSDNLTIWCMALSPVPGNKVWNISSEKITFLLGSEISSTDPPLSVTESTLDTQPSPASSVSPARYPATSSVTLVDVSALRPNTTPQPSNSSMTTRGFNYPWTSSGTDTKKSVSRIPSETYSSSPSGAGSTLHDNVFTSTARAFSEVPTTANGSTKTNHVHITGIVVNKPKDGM


Experiments:
[1] = molecular target: T1, CD96 extracellular region with His tag …; assay: blocking cell ELISA: antibody premixed with CD96 antigen (0.5 ug/mL), binding to fixed CD155-CHO cells
Protocol: CD155-CHO cells (constructed by Shanghai Hengrui) were seeded in 96-well culture plates at a density of 9×10⁴/100 μL/well and cultured overnight. After aspirating the supernatant, the plate was washed once with PBS, 100 μl/well of immunostaining fixation solution (Biyuntian, Cat No. P0098) was added and fixed for one hour at room temperature, and the plate was washed three times with PBS. After discarding the liquid, 250 μl/well of 5% skim milk (BD, Cat No. 232100) blocking solution diluted with PBS was added, and the plate was blocked in an incubator at 37° C. for 2.5 hours. After blocking, the blocking solution was discarded, subsequently, the plate was washed 4 times with PBST buffer (pH 7.4 PBS containing 0.05% tween-20). 50 μl/well of antigen-antibody pre-incubation solution (gradient concentrations of the hybridoma antibody to be tested and CD96-Fc at a final concentration of 0.5 μg/mL were premixed at 37° C. for 30 minutes, or gradient concentrations of humanized antibody samples and Bio-CD96-His at a final concentration of 0.5 μg/mL were premixed at 37° C. for 30 minutes) (Biotin-labeled kit, Dongren Chemical, Cat No. LK03) was added, and the plate was incubated in an incubator at 37° C. for 2 hours. After incubation, the reaction solution in the microtiter plate was discarded, the plate was washed 4 times with PBST, and 50 μl/well of HRP-labeled goat anti-human secondary antibody (Jackson Immuno Research, Cat No. 109-035-003) diluted with sample dilution or HRP-labeled streptavidin diluted with sample dilution (Sigma, Cat No. 52438) was added, followed by incubating at 37° C. for 1 hour. After washing the plate 4 times with PBST, 50 μl/well of TMB chromogenic substrate (KPL, Cat No. 52-00-03) was added, the plate was incubated at room temperature for 10-20 minutes, followed by adding 50 μl/well of 1M H₂SO₄ to stop the reaction. The absorption value was read at 450 nm with a NOVOStar microplate reader, and the EC50 value of the effect of CD96 antibody on blocking the binding between the antigens and CD155-CHO cells was calculated (see FIG. 2 and Table 16).

[2] = molecular target: T2, Biotinylated CD96 antigen; assay: competition ELISA, antibody B premixed with biotinylated CD96; competitor (coated antibody A): h1718-012
Protocol: (§1) Competitive assays of different antibodies binding to CD96 protein were used to classify binding epitopes of the antibodies. The specific experimental methods are as follows:
(§2) Antibody A was diluted to a concentration of 2 μg/ml with PBS buffer (Shanghai Yuanpei Biotechnology Co., Ltd. Cat No. B320), pH 7.4, added to a 96-well microtiter plate (Corning, Cat No. CLS3590-100EA) at a volume of 50 μl/well, and coated at 4° C. overnight. After discarding the liquid, 250 μl/well of 5% skim milk (BD skim milk, Cat No. 232100) blocking solution diluted with PBS was added, and the plate was incubated at 37° C. for 3 hours. After blocking, the blocking solution was discarded, and the plate was washed 5 times with PBST buffer (pH 7.4 PBS containing 0.05% tween-20) and stored for later use. Antibody B was diluted to 40 μg/ml and 8 μg/ml with 1% BSA, and Biotinylated CD96 antigen was simultaneously diluted to 4 μg/mL. Subsequently, antibody B and antigen were mixed in a 1:1 volume ratio, pre-incubated at 37° C. for 45 minutes, added into the enzyme plate coated with antibody A, thus incubating the plate in an incubator at 37° C. for 1.5 hours. After incubation, the plate was washed for 5 times with PBST, and 50 μl/well of HRP-labeled streptavidin (Sigma, Cat No. 52438) diluted with sample dilution was added, followed by incubating the plate at 37° C. for 1 hour. After washing the plate 5 times with PBST, 50 μl/well of TMB chromogenic substrate (KPL, Cat No. 52-00-03) was added for color development, followed by adding 50 μl/well of 1M H₂SO₄ to stop the reaction. The absorption value was read at 450 nm with a NOVOStar microplate reader, and the OD value was used to determine whether A and B CD96 antibodies compete with each other. Antibodies that compete with each other fall into the same class of antibodies, otherwise belong to different classes of antibodies (see FIG. 3 and Table 18).

[3] = molecular target: T2, Biotinylated CD96 antigen; assay: competition ELISA, antibody B premixed with biotinylated CD96; competitor (coated antibody A): h1721-003
Protocol: as §1, §2

Binder	IC50 [1]	competition (percent) [2]	competition (percent) [3]
ch1722 (antibody, human IgG4 S228P, kappa, V domains shown, also called chi722; chimeric antibody corresponding to m1722) VH: QVQLQQPGAELVKPGTSVKLSCKASGNTFIDYWMHWVKQRPGQGLEWIGMLHPNSGTTSFNEKFKIKTTLTIDKSSSTAYMQLSSLTSEDSAIYYCASDYSGPFAYWGQGTLVTVSA VL: QIVLTQSPGIMSAFPGEKVTMTCSASSSVNYIHWYQQKSGTSPKRWIFDTSKLASGVPARFSGSGSGTSYSLTISSMEAEDAATYYCQQWRSNPLTFGAGTKLELKR	0.159 nM		
h1718-012 (antibody, V domains shown, Only variable regions are tied to this name) VH: EVQLVQSGAEVKKPGASVKVSCKASGYTITDYNMNWVRQAPGQRLEWIGVINPSYGITDYNQNFKDRVTITVDTSASTAYMELSSLRSEDTAVYYCAIQLRLPGYFDVWGQGTTVTVSS VL: DIQMTQSPSSLSASVGDRVTITCKASQDINQYLNWFQQKPGKAPKTLIYRANRLVDGVPSRFSGSGSGQDYTLTISSLQPEDFATYYCLKYDEFPYTFGGGTKVEIK		100%	103%
h1721-003 (antibody, V domains shown, Only variable regions are tied to this name; also called M721-003) VH: EVTLKESGPVLVKPTETLTLTCTVSGFSLSSYGVNWIRQPPGKALEWLGVIWGDGSTNYHSALISRLTISKDTSKSQVVLTLTNMDPVDTATYYCAKNYFYGSRYGYAMDSWGQGTTVTVSS VL: DIQMTQSPSSLSASVGDRVTITCRASENIYSSLAWYQQKPGKAPKLLIYNAKTLIEGVPSRFSGSGSGTDFTLTISSLQPEDFATYYCQHHYGTPYTFGGGTKVEIK		73.6%	100%
h1719-014 (antibody, V domains shown, Only variable regions are tied to this name; also called M719-014) VH: EVTLKESGPVLVKPTETLTLTCTVSGFSLSSYGVSWVRQPPGKGLEWLGVIWGDGNTNYHSVLISRLTISKDTSKSQVVLTLTNMDPVDTATYYCAKNYYYGSRYGYPLDYWGQGTTVTVSS VL: DIQMTQSPSSVSASVGDRVTITCKATQDVGTAVAWYQQKPGKSPKLLIYWASTRHTGVPERFSGSGSGTDFTLTISSLQPEDFATYFCQQYGSSVLTFGGGTKVEIK		44.3%	84.6%
ch1720 (antibody, human IgG4 S228P, kappa, V domains shown, also called chimeric antibody corresponding to m1720) VH: EFQLQQSGPELVKPGASVKISCKASAYSLTDYNMNWVKQSNGKSLEWIGVINPSYGISSYNQKFKGKATLTVDQSSSTAYMHLNSLTSEDSAVYYCARQLRLPGYFDVWGTGTTVTVSS VL: DIKMTQSPSSKNASLGERVTITCKASQDINSYLNWFQQKPGKSPKTLIYRASRLVDGVPSRFSGSGSGQDYSLTISSLEYEDMGIYYCLKYDEFPYTFGGGTKLEIKR	0.149 nM	94.4%	98.7%
ch1718 (antibody, human IgG4 S228P, kappa, V domains shown, also called chimeric antibody corresponding to m1718) VH: EFQLQQSGPELVKPGASVKISCKASAYSITDYNMNWVKQSNGKSLEWIGVINPSYGITDYNQNFKDKATLTVDQSSSTAYMQLNSLTSEDSAVYYCAIQLRLPGYFDVWGTGTTVIVSS VL: DIKMTQSPSSMYASLGERVTITCKASQDINNYLNWFQQKPGKSPKTLIYRANRLVDGVPSRFSGSGSGQDYSLTISSLEYEDMGIYYCLKYDEFPYTFGGGTKVEIKR	0.096 nM		
h1722-010 (antibody, V domains shown, Only variable regions are tied to this name; also called M722-010) VH: EVQLVQSGAEVKKPGSSVKVSCKASGGTFSDYWMHWVRQAPGQGLEWIGMLHPNSGTTSFNEKFKIRVTITADKSTSTAYMELSSLRSEDTAVYYCASDYSGPFAYWGQGTLVTVSS VL: DIQLTQSPSSLSASVGDRVTITCSASSSVNYIHWYQQKPGKAPKRWIFDTSKLASGVPSRFSGSGSGTDYTLTISSLQPEDFATYYCQQWRSNPLTFGQGTKLEIK		-3.5%	-8.5%
ch1719 (antibody, human IgG4 S228P, kappa, V domains shown, also called chimeric antibody corresponding to m1719) VH: QVQLKESGPGLVAPSQSLSITCTVSGFSLISYGVSWVRQPPGKGLEWLGVIWGDGNTNYHSVLISRLSIRKDDSKSQVFLKLNSLQTDDTATYYCAKNNYYGSRYGYPMDYWGQGTSVTVSS VL: DIVMTQSHKFMSTSVGDRVSITCKATQDVGTAVAWYQQKPGHSPKLLIYWASTRHTGVPERFTGSGSGTDFTLTIDNVQSEDLADYFCQQYGSSVLTFGAGTKVELRR	0.137 nM		
ch1721 (antibody, human IgG4 S228P, kappa, V domains shown, also called chimeric antibody corresponding to m1721) VH: QVQLKESGPGLVAPSQSLSITCTVSGFSLISYGVNWVRQPPGKGLEWLGVIWGDGSTNYHSALISRLSISKDDSKSQVFLNLNSLQTDDTATYYCAKNYFYGSRYGYAMDSWGQGISVTVSS VL: DIQMTQSPASLSAAVGETVTITCRASENIYSSLAWYQQKQGKSPQLLVYNAKTLIETVASRFSGSGSGTQYSLKINSLQPEDFGSFYCQHHYGTPYTFGGGTKLEIKR	0.214 nM		
